Laboratory results published in the supplement of paper PMC10065799, “High-throughput profiling of sequence recognition by tyrosine kinases and SH2 domains using bacterial peptide display” (eLife, 2023).

Legend:
[1] = molecular target: MERTK (UniProt Q12866); assay: phosphorylation enrichment, bacterial display (enrichment ratio); higher = better substrate or ligand; peptides without Tyr show the background
[2] = molecular target: Jak2 (UniProt O60674); assay: as above
[3] = system: AncSZ; assay: as above
[4] = system: Fer (mouse); assay: as above
[5] = molecular target: EPHB1 (UniProt P54762); assay: as above
EPHB1, sequence (P54762 whole entry, looked up): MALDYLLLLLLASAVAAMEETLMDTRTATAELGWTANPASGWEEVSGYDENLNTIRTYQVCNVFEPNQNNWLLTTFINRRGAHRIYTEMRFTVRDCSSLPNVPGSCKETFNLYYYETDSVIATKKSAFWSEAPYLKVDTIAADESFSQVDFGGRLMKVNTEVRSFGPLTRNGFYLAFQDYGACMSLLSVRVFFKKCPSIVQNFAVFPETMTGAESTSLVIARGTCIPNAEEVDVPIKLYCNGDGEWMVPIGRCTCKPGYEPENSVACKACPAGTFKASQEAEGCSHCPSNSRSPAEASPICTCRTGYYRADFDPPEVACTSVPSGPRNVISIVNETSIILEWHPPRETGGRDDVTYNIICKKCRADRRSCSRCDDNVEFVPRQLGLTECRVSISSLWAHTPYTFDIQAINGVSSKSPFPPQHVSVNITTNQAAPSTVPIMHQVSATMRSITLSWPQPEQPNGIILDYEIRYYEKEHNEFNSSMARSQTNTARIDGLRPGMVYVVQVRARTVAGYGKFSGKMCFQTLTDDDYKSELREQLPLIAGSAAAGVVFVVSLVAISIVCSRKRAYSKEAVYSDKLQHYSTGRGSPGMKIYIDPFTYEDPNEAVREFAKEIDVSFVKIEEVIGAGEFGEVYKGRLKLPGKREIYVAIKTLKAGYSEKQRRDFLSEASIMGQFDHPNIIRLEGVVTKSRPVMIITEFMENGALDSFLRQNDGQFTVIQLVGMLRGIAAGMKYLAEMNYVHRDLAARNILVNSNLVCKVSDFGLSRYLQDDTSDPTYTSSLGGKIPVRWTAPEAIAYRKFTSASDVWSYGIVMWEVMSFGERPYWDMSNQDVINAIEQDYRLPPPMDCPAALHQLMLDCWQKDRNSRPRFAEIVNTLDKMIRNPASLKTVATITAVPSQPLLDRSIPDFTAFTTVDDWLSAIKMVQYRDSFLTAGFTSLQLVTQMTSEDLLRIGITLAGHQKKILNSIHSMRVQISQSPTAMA

[6] = molecular target: EPHB2 (UniProt P29323); assay: as above
[7] = molecular target: FGFR3 (UniProt P22607); assay: as above
[8] = molecular target: Hck (UniProt P08631); assay: as above
Hck, sequence (P08631 whole entry, looked up): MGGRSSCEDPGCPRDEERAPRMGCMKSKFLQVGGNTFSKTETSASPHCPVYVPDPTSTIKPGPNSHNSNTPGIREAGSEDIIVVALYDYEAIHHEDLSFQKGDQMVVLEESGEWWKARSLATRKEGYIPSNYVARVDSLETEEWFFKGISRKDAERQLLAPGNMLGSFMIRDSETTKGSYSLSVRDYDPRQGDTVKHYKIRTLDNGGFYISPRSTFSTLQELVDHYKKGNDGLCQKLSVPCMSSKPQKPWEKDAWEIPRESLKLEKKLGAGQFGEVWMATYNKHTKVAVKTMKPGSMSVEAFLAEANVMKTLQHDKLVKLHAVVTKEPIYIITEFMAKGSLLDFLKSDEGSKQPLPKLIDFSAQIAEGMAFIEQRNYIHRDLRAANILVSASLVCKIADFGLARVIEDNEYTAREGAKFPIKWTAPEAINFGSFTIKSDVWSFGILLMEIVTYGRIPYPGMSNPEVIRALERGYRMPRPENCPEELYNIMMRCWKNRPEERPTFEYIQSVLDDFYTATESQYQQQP

[9] = molecular target: FGFR1 (UniProt P11362); assay: as above
FGFR1, sequence (P11362 whole entry, looked up): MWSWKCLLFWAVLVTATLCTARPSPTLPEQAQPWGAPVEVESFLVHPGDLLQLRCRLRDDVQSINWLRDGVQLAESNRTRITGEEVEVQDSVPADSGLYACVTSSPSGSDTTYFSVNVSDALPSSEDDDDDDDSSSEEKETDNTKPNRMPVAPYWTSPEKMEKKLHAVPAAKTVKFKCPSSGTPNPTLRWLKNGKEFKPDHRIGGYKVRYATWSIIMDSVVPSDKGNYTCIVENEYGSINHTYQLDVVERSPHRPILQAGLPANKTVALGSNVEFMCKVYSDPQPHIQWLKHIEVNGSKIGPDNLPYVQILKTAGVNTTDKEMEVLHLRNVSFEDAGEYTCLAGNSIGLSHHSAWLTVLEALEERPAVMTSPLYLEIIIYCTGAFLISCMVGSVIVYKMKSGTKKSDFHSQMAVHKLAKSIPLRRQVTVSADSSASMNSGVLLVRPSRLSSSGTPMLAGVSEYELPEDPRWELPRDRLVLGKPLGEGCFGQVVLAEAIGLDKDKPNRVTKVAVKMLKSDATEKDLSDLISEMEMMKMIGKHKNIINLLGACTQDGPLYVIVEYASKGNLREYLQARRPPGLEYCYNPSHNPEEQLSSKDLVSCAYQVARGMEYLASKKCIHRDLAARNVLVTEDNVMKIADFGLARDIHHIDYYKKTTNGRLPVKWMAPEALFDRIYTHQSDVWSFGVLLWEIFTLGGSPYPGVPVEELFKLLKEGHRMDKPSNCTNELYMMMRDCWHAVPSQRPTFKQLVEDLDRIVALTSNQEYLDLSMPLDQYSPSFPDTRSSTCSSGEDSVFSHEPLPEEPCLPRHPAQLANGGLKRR

[10] = molecular target: Fes (UniProt P07332); assay: as above
Fes, sequence (P07332 whole entry, looked up): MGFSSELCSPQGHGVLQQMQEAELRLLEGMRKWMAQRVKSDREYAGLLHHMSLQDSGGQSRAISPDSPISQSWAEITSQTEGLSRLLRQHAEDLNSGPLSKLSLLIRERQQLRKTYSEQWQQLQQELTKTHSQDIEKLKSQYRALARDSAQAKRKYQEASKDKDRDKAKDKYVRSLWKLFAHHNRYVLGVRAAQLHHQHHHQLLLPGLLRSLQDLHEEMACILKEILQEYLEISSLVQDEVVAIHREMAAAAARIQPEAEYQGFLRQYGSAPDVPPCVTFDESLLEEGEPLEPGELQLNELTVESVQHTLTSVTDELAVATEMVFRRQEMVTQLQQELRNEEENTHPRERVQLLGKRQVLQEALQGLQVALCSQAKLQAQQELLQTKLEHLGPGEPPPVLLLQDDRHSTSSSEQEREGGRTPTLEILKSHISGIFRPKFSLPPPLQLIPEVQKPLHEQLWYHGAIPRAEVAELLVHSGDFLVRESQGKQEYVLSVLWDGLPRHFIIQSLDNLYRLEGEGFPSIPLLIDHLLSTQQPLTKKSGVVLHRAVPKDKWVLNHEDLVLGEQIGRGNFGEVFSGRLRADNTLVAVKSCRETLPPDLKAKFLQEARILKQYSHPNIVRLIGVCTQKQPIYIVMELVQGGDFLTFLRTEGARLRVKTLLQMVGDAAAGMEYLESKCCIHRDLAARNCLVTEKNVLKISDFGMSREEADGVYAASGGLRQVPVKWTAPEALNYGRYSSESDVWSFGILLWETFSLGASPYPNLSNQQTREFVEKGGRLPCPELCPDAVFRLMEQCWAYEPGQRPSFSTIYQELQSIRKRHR

[11] = molecular target: Fyn (UniProt P06241); assay: as above
Fyn, sequence (P06241 whole entry, looked up): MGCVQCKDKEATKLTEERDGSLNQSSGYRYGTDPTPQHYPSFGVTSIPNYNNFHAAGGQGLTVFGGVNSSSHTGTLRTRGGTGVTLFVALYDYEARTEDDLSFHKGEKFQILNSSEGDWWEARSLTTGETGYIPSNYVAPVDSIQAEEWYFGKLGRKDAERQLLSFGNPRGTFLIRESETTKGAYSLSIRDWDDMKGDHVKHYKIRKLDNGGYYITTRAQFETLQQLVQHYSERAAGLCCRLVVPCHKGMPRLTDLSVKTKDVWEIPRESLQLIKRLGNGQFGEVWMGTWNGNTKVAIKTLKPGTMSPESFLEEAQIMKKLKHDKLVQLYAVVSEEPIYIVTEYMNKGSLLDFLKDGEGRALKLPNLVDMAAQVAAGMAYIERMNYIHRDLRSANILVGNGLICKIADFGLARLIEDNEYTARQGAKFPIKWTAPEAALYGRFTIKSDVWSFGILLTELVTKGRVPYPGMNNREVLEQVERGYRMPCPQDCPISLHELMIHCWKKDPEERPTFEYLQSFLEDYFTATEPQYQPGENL

[12] = system: c-Abl (mouse); assay: as above
[13] = system: c-Src; assay: as above
[14] = molecular target: c-Src SH2; assay: SH2 binding enrichment of the phosphorylated peptide, bacterial display (enrichment ratio); higher = better substrate or ligand; peptides without Tyr show the background
[15] = molecular target: SHP2-C SH2; assay: as above
[16] = molecular target: Grb2 SH2 (UniProt P62993); assay: as above
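Throughout, for SH2 binding enrichment of the phosphorylated peptide, bacterial display: peptide library displayed on the E. coli surface as eCPX fusions, selected cells deep-sequenced, score is each peptide's frequency after selection divided by its frequency in the input.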
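Throughout, for phosphorylation enrichment, bacterial display: 11-residue human phosphosite peptides and single-mutation variants displayed on the E. coli surface, counted by deep sequencing, each peptide's frequency after selection divided by its frequency in the unselected input library; frequency after pTyr selection over input frequency; kinase dosed for 20-30% of maximal phosphorylation in three min.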

MERTK, sequence (Q12866 whole entry, looked up): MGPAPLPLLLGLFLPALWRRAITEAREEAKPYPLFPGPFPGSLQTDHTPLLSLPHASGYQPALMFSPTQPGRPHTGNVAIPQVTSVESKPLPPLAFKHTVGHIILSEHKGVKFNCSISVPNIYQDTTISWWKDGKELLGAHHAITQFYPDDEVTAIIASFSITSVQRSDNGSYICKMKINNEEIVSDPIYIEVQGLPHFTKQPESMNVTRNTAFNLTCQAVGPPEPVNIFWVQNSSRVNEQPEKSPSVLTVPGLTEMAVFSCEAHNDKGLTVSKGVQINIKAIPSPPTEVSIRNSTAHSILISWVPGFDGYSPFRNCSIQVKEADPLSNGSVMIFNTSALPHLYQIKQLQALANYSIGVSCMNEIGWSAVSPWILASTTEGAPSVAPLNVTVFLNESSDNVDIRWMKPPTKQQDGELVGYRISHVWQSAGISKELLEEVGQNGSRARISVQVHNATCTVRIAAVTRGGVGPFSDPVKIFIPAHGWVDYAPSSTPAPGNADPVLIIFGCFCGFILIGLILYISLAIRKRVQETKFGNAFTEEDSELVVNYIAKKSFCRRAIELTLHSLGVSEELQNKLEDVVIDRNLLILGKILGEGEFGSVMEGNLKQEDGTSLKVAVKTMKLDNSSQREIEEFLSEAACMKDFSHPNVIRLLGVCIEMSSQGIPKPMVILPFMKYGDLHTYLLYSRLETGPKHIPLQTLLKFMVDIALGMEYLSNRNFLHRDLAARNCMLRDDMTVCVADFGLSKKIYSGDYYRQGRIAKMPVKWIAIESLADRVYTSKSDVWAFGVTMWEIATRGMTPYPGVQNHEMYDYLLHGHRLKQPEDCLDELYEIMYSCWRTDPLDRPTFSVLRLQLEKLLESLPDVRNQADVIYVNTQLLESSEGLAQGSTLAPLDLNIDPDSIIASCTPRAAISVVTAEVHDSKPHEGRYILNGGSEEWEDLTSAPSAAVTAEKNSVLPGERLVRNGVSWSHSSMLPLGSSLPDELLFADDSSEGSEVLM

| SH2 binding enrichment [14] | SH2 binding enrichment [15] | SH2 binding enrichment [16] | Sequence | phosphorylation enrichment [1] | phosphorylation enrichment [2] | phosphorylation enrichment [3] | phosphorylation enrichment [4] | phosphorylation enrichment [5] | phosphorylation enrichment [6] | phosphorylation enrichment [7] | phosphorylation enrichment [8] | phosphorylation enrichment [9] | phosphorylation enrichment [10] | phosphorylation enrichment [11] | phosphorylation enrichment [12] | phosphorylation enrichment [13] |
| --- | --- | --- | --- | --- | --- | --- | --- | --- | --- | --- | --- | --- | --- | --- | --- | --- |
| 0.623 | 0.747 | 0.959 | RLLRGHDQSAY [HLA-C_Y137_Y137H] | 0.371 | 0.754 | 0.632 | 0.387 | 0.403 | 0.336 | 0.455 | 0.549 | 0.417 | 0.587 | 0.336 | 0.597 | 0.361 |
| 1.65 | 1.14 | 1.47 | RLLRGYDQFAY [HLA-C_Y137_S140F] | 0.433 | 0.567 | 0.794 | 0.502 | 0.422 | 0.433 | 0.617 | 0.49 | 0.49 | 0.848 | 0.395 | 0.775 | 0.514 |
| 0.758 | 0.953 | 1.26 | RLLRGYDQSAF [HLA-C_Y137_YF] | 0.443 | 0.628 | 0.669 | 0.502 | 0.422 | 0.526 | 0.712 | 0.439 | 0.412 | 0.592 | 0.416 | 0.708 | 0.459 |
| 0.444 | 0.549 | 0.679 | RLRKFYLGKFL [KLB_Y906_YF] | 0.645 | 0.608 | 0.631 | 0.468 | 0.393 | 0.462 | 0.64 | 0.654 | 0.669 | 0.624 | 0.689 | 0.719 | 0.707 |
| 0.341 | 0.441 | 0.594 | RLRKYYLGKYL [KLB_Y906] | 0.73 | 0.662 | 0.601 | 0.538 | 0.429 | 0.661 | 0.528 | 0.571 | 0.584 | 0.728 | 0.707 | 0.454 | 0.701 |
| 0.46 | 1.01 | 0.77 | RLSARYFQGDL [PDK3_Y337_Y334S] | 0.41 | 0.718 | 0.563 | 0.312 | 0.393 | 0.342 | 0.492 | 0.362 | 0.436 | 0.684 | 0.399 | 0.649 | 0.469 |
| 0.801 | 0.842 | 1.05 | RNEAFYDTFST [EFCAB3_Y372_S370A] | 14.4 | 1.46 | 1.32 | 7.96 | 1.98 | 3.35 | 0.811 | 10.2 | 0.652 | 1.14 | 11.3 | 4.17 | 10 |
| 0.548 | 0.714 | 0.995 | RNGDRYFKGIV [DCX_Y64] | 0.433 | 0.626 | 0.709 | 0.549 | 0.335 | 0.619 | 0.483 | 0.419 | 0.444 | 0.632 | 0.665 | 0.664 | 0.455 |
